Reference: patent US20130195901A1 (published 2013)

What was measured:
[1] = molecular target: T1, HLA-A*0201 class I monomer of the iTopia Epitope Discovery System; assay: iTopia binding ED50
[2] = molecular target: T1, HLA-A*0201 class I monomer of the …; assay: iTopia peptide binding (ED50)
[3] = molecular target: T1, HLA-A*0201 class I monomer of the …; assay: iTopia binding ED50; remark: listed apart in the source
[4] = molecular target: T1, HLA-A*0201 class I monomer of the …; assay: iTopia binding ED50; remark: listed apart in the source
[5] = molecular target: T1, HLA-A*0201 class I monomer of the …; assay: iTopia binding ED50; remark: listed apart in the source
[6] = molecular target: T1, HLA-A*0201 class I monomer of the …; assay: iTopia binding ED50; remark: listed apart in the source

EC50 [1] | EC50 [3] | Binder | other results
483 nM |  | GLPSIPVHTI [PSMA288-297 analog, Thr at PΩ-1] | 
 |  | ALWSIPVHPV [PSMA288-297 analog, Ala at P1, Trp at P3, Val at PΩ] | EC50 [2]: 494 nM
 | 2410 nM | GVPSIPVHPI [PSMA288-297 analog, Val at P2] | 
 | 669 nM | GQPSIPVHPI [PSMA288-297 analog, Gln at P2] | 
447 nM |  | GLPSIPVHSI [PSMA288-297 analog, Ser at PΩ-1] | 
 |  | AVPSIPVHPV [PSMA288-297 analog, Ala at P1, Val at P2, Val at PΩ] | EC50 [4]: 1080 nM
586 nM |  | GLPSIPVHLI [PSMA288-297 analog, Leu at PΩ-1] | 
 |  | ALPSIPVHPV [PSMA288-297 analog, Ala at P1 and Val at PΩ] | EC50 [5]: 5.97 µM
 | 1070 nM | GMPSIPVHPI [PSMA288-297 analog, Met at P2] | 
 | 1330 nM | GLPSIPVHPI [PSMA288-297] | EC50 [6]: 1330 nM; EC50 [4]: 1330 nM
816 nM |  | GLPSIPVHAI [PSMA288-297 analog, Ala at PΩ-1] | 
1170 nM |  | GLPSIPVHPL [PSMA288-297 analog, Leu at PΩ] | 
